Key:
[1] = tested on: T1, 18-mer peptide PQLPYPQPQLPYPQPQPF
T1 sequence: PQLPYPQPQLPYPQPQPF

[2] = tested on: T2, 33-mer peptide LQLQPFPQPQLPYPQPQLPYPQPQLPYPQPQPF from α2-gliadin
T2 sequence: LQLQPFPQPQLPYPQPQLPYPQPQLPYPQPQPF

Substance	Km (protease activity against 18-mer peptide) [1]	Vmax (protease activity against 18-mer peptide) (mg 18-mer peptide/ml) [1]	in vitro degradation of the peptide (protease activity) [2]
elongation factor Tu from Lactobacillus casei (strain P02503 A1 = DN_114001, CNCM I-1518), purified from culture supernatant	0.643 mg 18-mer peptide/ml	1.27	The protease able to degrade in vitro the 33-mer as well as the 18-mer peptide
elongation factor G from Streptococcus thermophilus (strain P02638 F9 = DN_001343, CNCM I-2776), purified from culture supernatant	0.794 mg 18-mer peptide/m1	1.5	The protease able to degrade in vitro the 33-mer as well as the 18-mer peptide

Source: patent US20170145379
